Tests used:
[1] = target: T1, BiP-Sepharose (Homo sapiens, UniProt P11021); experiment: Experiment 2: BiP-Sepharose extraction from six synovial fluid samples of RA patients and mass spectrometry; type: binding; conditions: BiP-Sepharose eluate, synovial fluid of RA patient
T1 construct: The human BiP gene except the signal peptide encoding region was obtained from Geneart (Germany); linker […]; made in house; host or cells: HEK 293E cells, transient transfection, PABC674 vector; secreted into the medium
Description: (§1) Six samples were incubated with the BiP-Sepharose, IgIV-Sepharose and the control-Sepharose: Normal pooled plasma, plasma of a patient I or of a patient II, with AL amyloidosis, serum of a patient III with RA (Rheumatoid Factor (RF) titer 682), control serum and synovial fluid of a patient IV with RA (RF titer 23). All samples were diluted 20× in HBS and applied to 200 μl beads in two volumes of 500 μl. One volume was incubated for 4 h at RT and supernatant was discarded after centrifugation (2 minutes at 1400 rpm). Subsequently, the second volume was applied to the same matrix and incubated overnight on a roller device at 4° C. […] To collect the eluates, the matrices were centrifuged and the two eluates were pooled for each sample.
(§2) Protein digests were desalted as described (Rappsilber et al., 2003), vacuum dried and dissolved in 2.5% formic acid.
(§3) For analysis of peptide mixtures, an Agilent 1100 HPLC system (Agilent Technologies) connected to a Thermo Finnigan LTQ-MS (Thermo Electron, Bremen, Germany) was used. Protein digests were injected on a trap column (Reprosil C18 RP (Dr Maisch, Germany), 20 mm×100 μm I.D.) at 5 μl/minute. Subsequently, the peptides were transferred with a split-reduced flow rate of 100 nL/minute solvent A (0.1 M acetic acid) on the analytical column (Reprosil C18 RP, 20 cm×50 μm I.D.). […] The column effluent was directly introduced into the ESI source of the mass spectrometer via a butt-connected nano-ESI emitter (New Objectives, Woburn, Mass.). The mass spectrometer was operated in the positive ion mode and parent ions were selected for fragmentation in data-dependent mode.
(§4) After mass spectrometric measurements, peak lists were generated using BioWorks software (Thermo Electron, Bremen, Germany). Protein identification was performed using Mascot software (www.matrixscience.com) by searching the IPIhuman database (version 3.24, downloaded from ftp://ftp.ebi.ac.uk/pub/databases/IPI/current) using the following settings: fully tryptic peptides, peptide tolerance 0.8 Da, MS/MS tolerance 0.9 Da, 1 missed cleavage allowed, carbamidomethyl (Cys) and oxidation (Met) as fixed and variable modification, respectively. The Scaffold software package (www.proteomesoftware.com) was used to parse the data and to filter peptides at a confidence level of 95%, allowing only protein identification with at least 2 peptides identified.
Those samples are listed below: • 1. […] One difference when compared to the protocol described above is that now with the twelve samples, elution buffer comprised 1 M NaCl. Again, a misfolded protein or a protein binding to misfolded protein is identified uniquely in the synovial fluid when no or a relatively very low number of fragments are detected in eluates of control-Sepharose.

[2] = target: T1, BiP-Sepharose; experiment: BiP-Sepharose extraction of proteins from patient plasma, serum, synovial fluid and mass-spectrometric identification; type: binding; conditions: compared to AL amyloidosis patient II
Description: BiP was coated on CNBr-Sepharose (GE-Healthcare, Amersham Biosciences). Immobilization of BiP was performed essentially as described elsewhere in this application for NHS-Sepharose. CNBr-matrix was dissolved at 200 mg/ml in 1 mM HCl and treated the same as the NHS-matrix, except for an additional 5 minutes activation step in 1 mM HCl on a roller device before washing in this buffer. BiP was diluted in immobilization buffer (50 mM NaCl and 40 mM NaHCO3) to a concentration of 820 μg/ml. A total volume of 2 ml BiP solution (1640 μg BiP) was incubated with 360 mg beads. Negative control matrix was exposed to immobilization buffer, only. After overnight immobilization matrix was blocked with Tris and washed.
as §1, §2, §3, §4

T1 sequence (P11021 19-654): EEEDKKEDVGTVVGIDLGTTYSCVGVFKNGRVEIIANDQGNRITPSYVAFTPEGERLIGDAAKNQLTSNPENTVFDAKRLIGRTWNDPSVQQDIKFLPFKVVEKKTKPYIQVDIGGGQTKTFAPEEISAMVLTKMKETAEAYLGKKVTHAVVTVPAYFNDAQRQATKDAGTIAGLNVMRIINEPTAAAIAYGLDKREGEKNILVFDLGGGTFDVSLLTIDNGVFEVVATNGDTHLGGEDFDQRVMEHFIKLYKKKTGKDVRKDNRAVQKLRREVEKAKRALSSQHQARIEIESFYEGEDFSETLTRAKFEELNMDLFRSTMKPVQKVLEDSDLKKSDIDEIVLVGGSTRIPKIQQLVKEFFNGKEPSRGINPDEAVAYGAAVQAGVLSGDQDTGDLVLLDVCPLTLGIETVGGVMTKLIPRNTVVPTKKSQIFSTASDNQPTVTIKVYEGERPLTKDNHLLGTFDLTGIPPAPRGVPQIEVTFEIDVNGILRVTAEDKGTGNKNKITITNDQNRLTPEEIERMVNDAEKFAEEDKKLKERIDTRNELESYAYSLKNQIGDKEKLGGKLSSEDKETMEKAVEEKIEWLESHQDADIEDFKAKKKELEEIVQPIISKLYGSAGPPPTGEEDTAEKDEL

# of unique peptides ([1]; Sample 1B) | # of unique peptides ([1]; Sample 3B) | # of unique peptides ([1]; Sample 2B) | Specific binding to BiP-Sepharose from normal pooled plasma [2] | # of unique peptides ([1]; Sample 5B) | Molecule
3 | 1 |  |  |  | IGHM protein, immunoglobulin heavy chain mu (heavy chain disease protein) (protein) GSASAPTLFPLVSCENSPSDTSSVAVGCLAQDFLPDSITFSWKYKNNSDISSTRGFPSVLRGGKYAATSQVLLPSKDVMQGTDEHVVCKVQHPNGNKEKNVPLPVIAELPPKVSVFVPPRDGFFGNPRKSKLICQATGFSPRQIQVSWLREGKQVGSGVTTDQVQAEAKESGPTTYKVTSTLTIKESDWLGQSMFTCRVDHRGLTFQQNASSMCVPDQDTAIRVFAIPPSFASIFLTKSTKLTCLVTDLTTYDSVTISWTRQNGEAVKTHTNISESHPNATFSAVGEASICEDDWNSGERFTCTVTHTDLPSPLKQTISRPKGVALHRPDVYLLPPAREQLNLRESATITCLVTGFSPADVFVQWMQRGQPLSPEKYVTSAPMPEPQAPGRYFAHSILTVSEEEWNTGETYTCVVAHEALPNRVTERTVDKSTGKPTLYNVSLVMSDTAGTCY
1 | 2 | 1 |  |  | FLJ00385 protein (Fragment), immunoglobulin heavy constant mu (protein) GSASAPTLFPLVSCENSPSDTSSVAVGCLAQDFLPDSITFSWKYKNNSDISSTRGFPSVLRGGKYAATSQVLLPSKDVMQGTDEHVVCKVQHPNGNKEKNVPLPVIAELPPKVSVFVPPRDGFFGNPRKSKLICQATGFSPRQIQVSWLREGKQVGSGVTTDQVQAEAKESGPTTYKVTSTLTIKESDWLGQSMFTCRVDHRGLTFQQNASSMCVPDQDTAIRVFAIPPSFASIFLTKSTKLTCLVTDLTTYDSVTISWTRQNGEAVKTHTNISESHPNATFSAVGEASICEDDWNSGERFTCTVTHTDLPSPLKQTISRPKGVALHRPDVYLLPPAREQLNLRESATITCLVTGFSPADVFVQWMQRGQPLSPEKYVTSAPMPEPQAPGRYFAHSILTVSEEEWNTGETYTCVVAHEALPNRVTERTVDKSTGKPTLYNVSLVMSDTAGTCY
 |  |  | specifically bound |  | complement C4a (protein, UniProt P0C0L4 680-756, looked up, C4a anaphylatoxin) C4a anaphylatoxin: NVNFQKAINEKLGQYASPTAKRCCQDGVTRLPMMRSCEQRAARVQQPDCREPFLSCCQFAESLRKKSRDKGQAGLQR
1 | 1 |  |  |  | Galectin-3-binding protein precursor (protein) VNDGDMRLADGGATNQGRVEIFYRGQWGTVCDNLWDLTDASVVCRALGFENATQALGRAAFGQGSGPIMLDEVQCTGTEASLADCKSLGWLKSNCRHERDAGVVCTNETRSTHTLDLSRELSEALGQIFDSQRGCDLSISVNVQGEDALGFCGHTVILTANLEAQALWKEPGSNVTMSVDAECVPMVRDLLRYFYSRRIDITLSSVKCFHKLASAYGARQLQGYCASLFAILLPQDPSFQMPLDLYAYAVATGDALLEKLCLQFLAWNFEALTQAEAWPSVPTDLLQLLLPRSDLAVPSELALLKAVDTWSWGERASHEEVEGLVEKIRFPMMLPEELFELQFNLSLYWSHEALFQKKTLQALEFHTVPFQLLARYKGLNLTEDTYKPRIYTSPTWSAFVTDSSWSARKSQLVYQSRRGPLVKYSSDYFQAPSDYRYYPYQSFQTPQHPSFLFQDKRVSWSLVYLPTIQSCWNYGFSCSSDELPVLGLTKSGGSDRTIAYENKALMLCEGLFVADVTDFEGWKAAIPSALDTNSSKSTSSFPCPAGHFNGFRTVIRPFYLTNSSGVD
2 |  | 1 |  | 1 | Histidine-rich glycoprotein precursor (protein) VSPTDCSAVEPEAEKALDLINKRRRDGYLFQLLRIADAHLDRVENTTVYYLVLDVQESDCSVLSRKYWNDCEPPDSRRPSEIVIGQCKVIATRHSHESQDLRVIDFNCTTSSVSSALANTKDSPVLIDFFEDTERYRKQANKALEKYKEENDDFASFRVDRIERVARVRGGEGTGYFVDFSVRNCPRHHFPRHPNVFGFCRADLFYDVEALDLESPKNLVINCEVFDPQEHENINGVPPHLGHPFHWGGHERSSTTKPPFKPHGSRDHHHPHKPHEHGPPPPPDERDHSHGPPLPQGPPPLLPMSCSSCQHATFGTNGAQRHSHNNNSSDLHPHKHHSHEQHPHGHHPHAHHPHEHDTHRQHPHGHHPHGHHPHGHHPHGHHPHGHHPHCHDFQDYGPCDPPPHNQGHCCHGHGPPPGHLRRRGPGKGPRPFHCRQIGSVYRLPPLRKGEVLPLPEANFPSFPLPHHKHPLKPDNQPFPQSVSESCPGKFKSGFPQVSMFFTHTFPK
3 |  |  |  |  | Apolipoprotein A-IV precursor (protein) EVSADQVATVMWDYFSQLSNNAKEAVEHLQKSELTQQLNALFQDKLGEVNTYAGDLQKKLVPFATELHERLAKDSEKLKEEIGKELEELRARLLPHANEVSQKIGDNLRELQQRLEPYADQLRTQVSTQAEQLRRQLTPYAQRMERVLRENADSLQASLRPHADELKAKIDQNVEELKGRLTPYADEFKVKIDQTVEELRRSLAPYAQDTQEKLNHQLEGLTFQMKKNAEELKARISASAEELRQRLAPLAEDVRGNLRGNTEGLQKSLAELGGHLDQQVEEFRRRVEPYGENFNKALVQQMEQLRQKLGPHAGDVEGHLSFLEKDLRDKVNSFFSTFKEKESQDKTLSLPELEQQQEQQQEQQQEQVQMLAPLES
2 | 1 |  |  | 1 | CDNA FLJ14473 fis, clone MAMMA1001080, highly similar to Homo sapiens SNC73 protein (SNC73) mRNA, immunoglobulin heavy constant alpha 1 (protein, UniProt P01876 1-398, looked up) Immunoglobulin heavy constant …: ASPTSPKVFPLSLCSTQPDGNVVIACLVQGFFPQEPLSVTWSESGQGVTARNFPPSQDASGDLYTTSSQLTLPATQCLAGKSVTCHVKHYTNPSQDVTVPCPVPSTPPTPSPSTPPTPSPSCCHPRLSLHRPALEDLLLGSEANLTCTLTGLRDASGVTFTWTPSSGKSAVQGPPERDLCGCYSVSSVLPGCAEPWNHGKTFTCTAAYPESKTPLTATLSKSGNTFRPEVHLLPPPSEELALNELVTLTCLARGFSPKDVLVRWLQGSQELPREKYLTWASRQEPSQGTTTFAVTSILRVAAEDWKKGDTFSCMVGHEALPLAFTQKTIDRLADWQMPPPYVVLDLPQETLEEETPGANLWPTTITFLTLFLLSLFYSTALTVTSVRGPSGNREGPQY
1 |  | 1 |  |  | IGHM protein, immunoglobulin heavy constant gamma 2 (protein) ASTKGPSVFPLAPCSRSTSESTAALGCLVKDYFPEPVTVSWNSGALTSGVHTFPAVLQSSGLYSLSSVVTVPSSNFGTQTYTCNVDHKPSNTKVDKTVERKCCVECPPCPAPPVAGPSVFLFPPKPKDTLMISRTPEVTCVVVDVSHEDPEVQFNWYVDGVEVHNAKTKPREEQFNSTFRVVSVLTVVHQDWLNGKEYKCKVSNKGLPAPIEKTISKTKGQPREPQVYTLPPSREEMTKNQVSLTCLVKGFYPSDISVEWESNGQPENNYKTTPPMLDSDGSFFLYSKLTVDKSRWQQGNVFSCSVMHEALHNHYTQKSLSLSPGK
